Measured values: patent publication US9012420B2, “Aptamer for chymase, and use thereof” (Ribomic Inc., priority 2009, dated 2015)

Legend:
chymase (recombinant) [1] = biological target: T1, chymase (recombinant) (UniProt P23946 P23946:22-247); assay: inhibition; SPR not determined; details: tags: SIGMA, expressed in yeast
T1 sequence: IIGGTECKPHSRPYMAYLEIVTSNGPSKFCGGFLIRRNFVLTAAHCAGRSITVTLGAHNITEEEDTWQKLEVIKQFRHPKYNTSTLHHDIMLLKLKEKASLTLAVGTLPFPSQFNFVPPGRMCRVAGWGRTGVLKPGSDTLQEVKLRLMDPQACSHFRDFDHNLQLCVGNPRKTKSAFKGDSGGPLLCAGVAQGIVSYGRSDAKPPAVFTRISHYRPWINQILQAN
Procedure: (§1) Here, Suc is a protecting succinyl group, and MCA is a 4-methylcoumaryl-7-amide group; upon cleavage of the C-terminal side of phenylalanine, AMC (7-amino-4-methyl-coumarine) is released. By detecting the fluorescence of this AMC, the enzyme activity of chymase can be determined. The assay was performed using a 96-well plate (F16 Black Maxisorp Fluoronunc, manufactured by Nunc), with a reaction mixture volume of 100 μL, in solution C as a buffer solution. First, each nucleic acid was serially diluted to 0.0027-2 μM concentrations in solution C to obtain 50 μL solutions. After 10 μL of the 1 mM substrate prepared in solution C was added thereto, the plate was set to the microplate reader SpectraMax190 (manufactured by Molecular Devices Corporation), and incubated at 37° C. for 5 minutes. […] The plate containing the reaction mixture was set to the microplate reader SpectraMax190 (manufactured by Molecular Devices Corporation), and examined for time-dependent changes in the fluorescence intensity at 37° C. for 5 minutes (or 30 minutes) (excitation wavelength 380 nm, detection wavelength 460 nm). A linear approximation of the increase in the fluorescence of the AMC released from the substrate by chymase activity was generated, and its slope was taken as the initial velocity ($Vmax$). […]
The inhibitory activity on chymase was measured in the same manner as in Example 3.

[2] = biological target: T2, chymase (native, human skin mast cell) (Homo sapiens, UniProt P23946 P23946:22-247); assay: inhibition; angiotensin I substrate; recombinant 0.037 uM; details: tags: Calbiochem
T2 sequence: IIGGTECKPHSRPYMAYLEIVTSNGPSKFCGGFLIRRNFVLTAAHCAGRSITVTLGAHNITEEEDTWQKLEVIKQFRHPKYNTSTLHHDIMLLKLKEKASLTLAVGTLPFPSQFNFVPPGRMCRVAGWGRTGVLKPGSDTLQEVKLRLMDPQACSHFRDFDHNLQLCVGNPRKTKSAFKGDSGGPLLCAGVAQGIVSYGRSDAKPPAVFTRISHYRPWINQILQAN
Procedure: (§2) The total volume of solution for an enzyme reaction in the assay was set to 50 μL, and the reaction was performed in solution C buffer. First, 0.3-0.75 ng of chymase (recombinant, (manufactured by SIGMA) or native (manufactured by Calbiochem)) was diluted with solution C to give 5 μL thereof. Here, the recombinant is chymase expressed by yeast, and the native is chymase purified from human skin mast cell. The nucleic acid was serially diluted with solution C at a concentration of 0.0027-2 μM to give 25 μL thereof. The chymase solution (5 μL) and the nucleic acid solution (25 μL) were mixed, and the mixture was incubated at 37° C. for 5 min. […] The whole mixture was centrifuged at 4° C., 14000 rpm for 10 min, and the supernatant (30 μL) was used for the next fluorescence induction reaction.
(§3) The above-mentioned supernatant (30 μL) was added to a 96 well plate (black, manufactured by Costar), a solution (15 μL) of 2% o-phthalaldehyde (manufactured by SIGMA) in methanol and 0.3M NaOH solution (170 μL) were added to each well, and the mixture was incubated at room temperature for 10 min. […] The plate was set on a microplate reader SpectraMax190 (manufactured by Molecular device) and the fluorescence intensity was measured at an excitation wavelength of 355 nm and a fluorescence wavelength of 460 nm.

chymase (recombinant) [3] = biological target: T1, chymase (recombinant); assay: inhibition; SPR ++; details: tags: SIGMA, expressed in yeast
Procedure: (§4) Here, Suc is a protecting succinyl group, and MCA is a 4-methylcoumaryl-7-amide group; upon cleavage of the C-terminal side of phenylalanine, AMC (7-amino-4-methyl-coumarine) is released. By detecting the fluorescence of this AMC, the enzyme activity of chymase can be determined. The assay was performed using a 96-well plate (F16 Black Maxisorp Fluoronunc, manufactured by Nunc), with a reaction mixture volume of 100 μL, in solution C as a buffer solution. First, each nucleic acid was serially diluted to 0.0027-2 μM concentrations in solution C to obtain 50 μL solutions. After 10 μL of the 1 mM substrate prepared in solution C was added thereto, the plate was set to the microplate reader SpectraMax190 (manufactured by Molecular Devices Corporation), and incubated at 37° C. for 5 minutes. Separately, 0.05 μg (or 0.005 μg) of chymase (recombinant, manufactured by SIGMA) was diluted in solution C to obtain a 40 μL chymase solution, and incubated at 37° C. for 5 minutes. The chymase solution was added to the mixture of the nucleic acid and substrate to initiate an enzyme reaction. The final chymase concentration in the reaction mixture was 16.7 nM (or 1.67 nM), the final substrate concentration being 100 μM. The plate containing the reaction mixture was set to the microplate reader SpectraMax190 (manufactured by Molecular Devices Corporation), and examined for time-dependent changes in the fluorescence intensity at 37° C. for 5 minutes (or 30 minutes) (excitation wavelength 380 nm, detection wavelength 460 nm). A linear approximation of the increase in the fluorescence of the AMC released from the substrate by chymase activity was generated, and its slope was taken as the initial velocity […]. For control, samples were treated and analyzed in the same manner in two cases: use of a 30N or 40N (a nucleotide of 30 or 40 consecutive bases represented by N; N is A, G, C or T) nucleic acid pool (negative control), and use of chymostatin, a known chymotrypsin-like serine protease inhibitor (positive control). Taking the initial reaction velocity without the nucleic acid and inhibitor (V_0) as a 100% enzyme activity, the inhibitory rate of each test substance was calculated using the following equation: […]
(§5) The chymase inhibitory activity was measured in the same manner as in Example 3.

chymase = biological target: T3, chymase (Homo sapiens, UniProt P23946 P23946:22-247); assay: SPR; stronger than 40N; solution A; details: tags: human skin mast cell, Calbiochem
T3 sequence: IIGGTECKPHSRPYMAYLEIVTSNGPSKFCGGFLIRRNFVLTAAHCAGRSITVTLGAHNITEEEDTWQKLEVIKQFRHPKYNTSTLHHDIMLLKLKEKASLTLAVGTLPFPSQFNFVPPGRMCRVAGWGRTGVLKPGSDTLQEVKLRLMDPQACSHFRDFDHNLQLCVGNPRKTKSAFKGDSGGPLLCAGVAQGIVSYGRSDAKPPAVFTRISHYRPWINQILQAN
Procedure: (§6) The binding activities against chymase of the nucleic acids shown by SEQ ID NO: 4-20 and 22-34 were determined by the surface plasmon resonance method using Biacore T100 (manufactured by GE Healthcare). The sensor chip used was the SA chip, which had streptavidin immobilized thereon. Bound thereto was about 1500 RU of a 16-nucleotide Poly dT with biotin bound to the 5' end thereof. […] 20 μL of chymase for analyte, prepared at 0.2 μM, was injected. Solution A was used as a running buffer.

chymase (recombinant) [4] = biological target: T1, chymase (recombinant); assay: inhibition; SPR ++; details: tags: SIGMA, expressed in yeast; remark: listed apart in the source
Procedure: as §4, with “By” for “Here, Suc is a protecting succinyl group, and MCA is a 4-methylcoumaryl-7-amide group; upon cleavage of the C-terminal side of phenylalanine, AMC (7-amino-4-methyl-coumarine) is released. By”
All nucleic acids of SEQ ID NO: 58-68 were prepared by chemical synthesis. Whether these nucleic acids are bound to chymase was assessed by surface plasmon resonance method in the same manner as in Example 4. The inhibitory activity on chymase was measured in the same manner as in Example 3.

chymase (recombinant) [5] = biological target: T1, chymase (recombinant); assay: inhibition; SPR not determined; details: tags: SIGMA, expressed in yeast; remark: listed apart in the source
Procedure: as §4, with “The chymase solution was added to the mixture of the nucleic acid and substrate to initiate an enzyme reaction. The final chymase concentration in the reaction mixture was 16.7 nM (or 1.67 nM), the final substrate concentration being 100 μM.” left out
as §5

chymase (recombinant) [6] = biological target: T1, chymase (recombinant); assay: SPR; stronger than 30N; solution C; chymase preparation for SPR not specified; details: tags: SIGMA, expressed in yeast
Procedure: as §6
The binding activities against chymase of the nucleic acids shown by SEQ ID NO: 38-48 were evaluated by the surface plasmon resonance method. In the evaluations for SEQ ID NO: 38-48, measurements were taken in the same manner as Example 1. Solution C was used as a running buffer.

chymase (recombinant) [7] = biological target: T1, chymase (recombinant); assay: inhibition; SPR ++; details: tags: SIGMA, expressed in yeast; remark: listed apart in the source
Procedure: as §4

[8] = biological target: T2, chymase (native, human skin mast cell); assay: inhibition; angiotensin I substrate; recombinant 0.041 uM; details: tags: Calbiochem
Procedure: as §2, §3

chymase (recombinant) [9] = biological target: T1, chymase (recombinant); assay: inhibition; Suc-AAPF-MCA, solution C, 37 C; SPR ++; details: tags: SIGMA, expressed in yeast
Procedure: as §1

[10] = biological target: T2, chymase (native, human skin mast cell); assay: inhibition; angiotensin I substrate, solution C, 37 C; recombinant 0.003 uM; details: tags: Calbiochem
Procedure: as §2, §3

B1: 56(17) (ssRNA)
RNA: GGGUUAGAUAGAGUUAAAAACCC
modifications: 2'-F pyrimidines; 5' 40 kDa branched PEG; 3' idT
IC50 (chymase (recombinant) [1]): 58 nM

B2: 72(2) (mixed)
mixed: GGGTTAGAUAGAGTUAAAAACCC
modifications: idT-G(M)G(M)G(M)ttAsG(M)aU(F)A(M)GAG(M)tU(F)A(M)A(M)A(M)A(M)A(M)ccc-idT (lower case DNA, s=PS)
IC50 [2]: 76 nM | IC50 (chymase (recombinant) [3]): 14 nM

B3: SEQ 10 (ssRNA)
RNA: GGGACGGUAGGAAUUCCGCCGCCUAAAAAACGACGAUAUUACAGAAACGUCAAAUACAUAGAAGAGCGGCCGC
modifications: 2'-F U and C
binding result (chymase): binds

B4: SEQ 61 (ssRNA)
RNA: GGGUUAGAUAGAUUUAAAAACCC
modifications: 2'-F pyrimidines
IC50 (chymase (recombinant) [4]): 23 nM

B5: SEQ 16 (ssRNA)
RNA: GGGACGGUAGGAAUUCCCAUGACUGAAAAACGUCAGUAAAAUCCGAAAAUCAUAUCAUAGAAGAGCGGCCGC
modifications: 2'-F U and C
binding result (chymase): binds

B6: SEQ 62 (ssRNA)
RNA: GGGUUGGAUAGAGUUAAGAACCC
modifications: 2'-F pyrimidines
IC50 (chymase (recombinant) [4]): 29 nM

B7: SEQ 64 (ssRNA)
RNA: GUCACAGAUAGAGUUAAAGUGAC
modifications: 2'-F pyrimidines
IC50 (chymase (recombinant) [4]): 20 nM

B8: SEQ 27 (ssRNA)
RNA: GGGACGGUAGGAAUUCCGUCAUCGGUUGCAAAUUGAAAAUACAAAACAAGGACAACCAUAGAAGAGCGGCCGC
modifications: 2'-F U and C
binding result (chymase): binds

B9: 56(27) (ssRNA)
RNA: GGGUUAGAUAGAGUUAAAAACCC
modifications: PEG-G(M)G(M)G(M)U(F)U(F)AG(M)A(M)U(F)A(M)GAG(M)U(F)U(F)A(M)A(M)A(M)A(M)A(M)C(F)C(F)C(F)-idT (M=2'-OMe, F=2'-F)
IC50 (chymase (recombinant) [5]): 84 nM

B10: SEQ 39 (ssRNA)
RNA: GGGAGCAGGAGAGAGGUCAGAUGGUUACGGAUAGAGUUAAGGUAACGGUACGGCCUAUGCGUGCUAGUGUGA
modifications: 2'-F pyrimidines
binding result (chymase (recombinant) [6]): binds

B11: SEQ 69 (ssRNA)
RNA: AAAGGGUUAGAUAGAGUUAAAAACCC
modifications: PEG-A(M)A(M)A(M)G(M)G(M)G(M)U(F)U(F)AG(M)A(M)U(F)A(M)GAG(M)U(F)U(F)A(M)A(M)A(M)A(M)A(M)C(F)C(F)C(F)-idT (M=2'-OMe, F=2'-F)
IC50 (chymase (recombinant) [5]): 91 nM

B12: SEQ 63 (ssRNA)
RNA: GCUACAGAUAGAGUUAAAGUAGC
modifications: 2'-F pyrimidines
IC50 (chymase (recombinant) [4]): 23 nM

B13: SEQ 13 (ssRNA)
RNA: GGGACGGUAGGAAUUCCGCAACCAUCCCGUAACUAUGGUUAGAUAGAGUUAAAAACCAUAGAAGAGCGGCCGC
modifications: 2'-F pyrimidines
IC50 (chymase (recombinant) [7]): 58 nM | IC50 [8]: 74 nM

B14: 72(8) (mixed)
mixed: GGGTTAGAUAGAGTUAAAAACCC
modifications: B-idT-G(M)G(M)G(M)ttAG(M)aU(F)A(M)GAG(M)tU(F)A(M)A(M)A(M)A(M)A(M)ccc-idT (lower case DNA, B=biotin)
IC50 (chymase (recombinant) [5]; label: biotin): 18 nM

B15: SEQ 7 (ssRNA)
RNA: GGGACGGUAGGAAUUCACCUUUCCAAUUGUGAAAGAAACACAAAAAGAAAUGACAUCAUAGAAGAGCGGCCGC
modifications: 2'-F U and C
binding result (chymase): binds

B16: SEQ 29 (ssRNA)
RNA: GGGACGGUAGGAAUUCACGACCGCCCAAAAAAUGGUGACAUUUUAGAAACACCGAACAUAGAAGAGCGGCCGC
modifications: 2'-F U and C
binding result (chymase): binds

B17: SEQ 65 (ssRNA)
RNA: GGCAGAUAGAGUUAAAGCC
modifications: 2'-F pyrimidines
IC50 (chymase (recombinant) [4]): 56 nM

B18: SEQ 4 (ssRNA)
RNA: GGGACGGUAGGAAUUCGUCCAUUCUACAGAUAGAGAUAAAGUAGAAUUUAACAAAACAUAGAAGAGCGGCCGC
modifications: 2'-F pyrimidines
IC50 (chymase (recombinant) [9]): 49 nM | IC50 [10]: 31 nM
